# Where a chain is given by its changes, count along the chain named. In names and notes the source's numbering stands.
# B1: acidic domain of Homo sapiens APLF (APLF^AD, residues 450 to 511), wild type (domain or fragment)
# chain: DEDNDNVGQPNEYDLNDSFLDDEEEDYEPTDEDSDWEPGKEDEEKEDVEELLKEAKRFMKRK
# B2: APLF^AD double anchor mutant Y462A/F468A (DA-34) (domain or fragment)
# chain: B1 chain with Y13A, F19A
# B3: APLF^AD mutant of Y462 tested by ITC on H3-H4 (domain or fragment)
# chain: B1 chain with Y13A
# B4: APLF^AD F468A (protein)
# chain: B1 chain with F19A
# B5: APLF^AD double anchor mutant Y476A/W485A (DA-AB) (domain or fragment)
# chain: B1 chain with Y27A, W36A
# B6: truncated APLF^AD construct corresponding to residues 449 to 490 (APLF^AD-Δ) (domain or fragment)
# chain: GLDEDNDNVGQPNEYDLNDSFLDDEEEDYEPTDEDSDWEPGKE
# B7: SUMO-APLF^AD quadruple anchor mutant Y462A/F468A/Y476A/W485A (QA) (domain or fragment)
# chain: B1 chain with Y13A, F19A, Y27A, W36A
# B8: SUMO-APLF^AD truncated QA mutant (QA-Δ, residues 449 to 490) (domain or fragment)
# chain: LDEDNDNVGQPNEADLNDSALDDEEEDAEPTDEDSDAEPGKE
# Biological target: T1, Drosophila melanogaster histone H3-H4 complex, full-length (Drosophila melanogaster, UniProt P02299 1-136; P84040 1-103)
# Test: ITC
row,Binder,Kd
1,B1,552 nM

# Biological target: T1, Drosophila melanogaster histone H3-H4 …
# Test: ITC
# Remark: another data set of the same source
row,Binder,Kd
1,B2,7630 nM
2,B1,790 nM
3,B3,3090 nM
4,B4,980 nM
5,B5,2050 nM

# Biological target: stoichiometric mixture of full-length Drosophila melanogaster H2A-H2B and H3-H4 (octamer-mix) (Drosophila melanogaster, UniProt P84051 1-124; P02283 1-123; P02299 1-136; P84040 1-103)
# Test: ITC
row,Binder,Kd
1,B6,90 nM
2,B2,671 nM
3,B7,794 nM
4,B5,317 nM
5,B8,1220 nM
